This is an account of results in paper PMC10470925 (PLOS ONE, 2023).

This data set concerns the molecule itself. The experiment in a line: deoxycholate-induced oligomerization, PAGE and western blot. In general terms: In western blotting, separated proteins are transferred to a membrane and probed.

B1: Staphylococcus aureus alpha-hemolysin (Hla) (natural protein)
chain: ADSDINIKTGTTDIGSNTTVKTGDLVTYDKENGMHKKVFYSFIDDKNHNKKLLVIRTKGTIAGQYRVYSEEGANKSGLAWPSAFKVQLQLPDNEVAQISDYYPRNSIDTKEYMSTLTYGFNGNVTGDDTGKIGGLIGANVSIGHTLKYVQPDFKTILESPTDKKVGWKVIFNNMVNQNWGPYDRDSWNPVYGNQLFMKTRNGSMKAADNFLDPNKASSLLSSGFSPDFATVITMDRKASKQQTNIDVIYERVRDDYQLHWTSTNWKGTNTKDKWTDRSSERYKIDWEKEEMTN
In general, stoichiometry N refers to a count of units in the complex or per binding partner. For B1, the “stoichiometry N” value is 7.
